Values of other authors as cited in paper PMC4117426.
Read-outs that look alike come from different tables or passages of the source.

Legend:
[1] = molecular target: FtsZ tail peptide C-terminal tail (Escherichia coli) (UniProt P0A9A6)
[2] = molecular target: FtsZ tail peptide C-terminal tail (Escherichia coli) (UniProt P0A9A6); remark: listed apart in the source

Chain of FtsA (P0ABH0 whole entry): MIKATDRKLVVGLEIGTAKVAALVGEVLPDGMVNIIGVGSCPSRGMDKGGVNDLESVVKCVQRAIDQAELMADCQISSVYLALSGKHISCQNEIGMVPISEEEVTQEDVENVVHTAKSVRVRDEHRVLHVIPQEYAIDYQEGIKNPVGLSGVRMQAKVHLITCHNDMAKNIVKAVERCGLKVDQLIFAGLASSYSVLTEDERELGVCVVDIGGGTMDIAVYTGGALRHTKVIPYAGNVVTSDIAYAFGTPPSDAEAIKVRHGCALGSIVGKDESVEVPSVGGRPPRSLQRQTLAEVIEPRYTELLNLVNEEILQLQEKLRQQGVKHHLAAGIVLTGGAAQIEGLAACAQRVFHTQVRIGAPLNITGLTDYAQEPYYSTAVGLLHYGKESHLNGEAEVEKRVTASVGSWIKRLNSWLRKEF

Row | Kd [1] [µM] | Kd [2] [µM] | Substance
1 | 50 |  | FtsA (from UniProt P0ABH0)
2 |  | 20 | ZipA (from UniProt P77173)
